Measured values reported in patent US20250250357A1 (NANJING ZAIMING PHARMACEUTICAL, published 2025).

Assays:
[1] = biological target: T1, human MSLN-R2-his protein (human, UniProt Q13421 391-486); test: ELISA; antibody 0.1 nM
T1 construct: also called hMSLN-R2-his; not shown: His tag

[2] = biological target: T2, human MSLN-FL-his protein (human, UniProt Q13421 296-580); test: competitive ELISA; row F2.17.3
T2 construct: made in HEK293E cells, purified on nickel column; also called hMSLN-FL-his; human MSLN full-length protein; not shown: His tag

[3] = biological target: T3, human MSLN-R3-his protein (human, UniProt Q13421 487-598); test: ELISA; antibody 0 nM (blank)
T3 construct: also called hMSLN-R3-his; not shown: His tag

[4] = biological target: T4, human MSLN protein, endogenously expressed on Hela and OVCAR3 cells (human, UniProt Q13421 296-598); test: FACS on OVCAR3 cells; antibody 0.0064 nM
T4 construct: whole, on cells; also called mesothelin

[5] = biological target: T1, human MSLN-R2-his protein; test: ELISA; antibody 100 nM
[6] = biological target: T2, human MSLN-FL-his protein; test: competitive ELISA; row F1.2.12
Description: (§1) In order to identify antigen-binding sites of antibodies, MSLN chimeric antibodies were grouped using competitive ELISA.
(§2) The chimeric antibodies were diluted to 2 μg/mL with PBS and allowed to coat 96-well high-adsorption ELISA plates at 50 μL/well. After the plates were coated at 4° C. overnight, 250 μL of a blocking buffer (PBS containing 2% (w/w) BSA) was added for two hours of blocking at room temperature. 40 μg/mL of the antibodies to be tested were added, and then the human MSLN-FL-His protein with an EC₈₀ concentration corresponding to each of the antibodies to be tested was added for incubation for 2 h. The plates were washed 5 times with PBS, an HRP-labeled anti-His secondary antibody (purchased from Genescript, Cat. No. A00612) was then added for incubation for 1 h, and the plates were washed 5 times again. A TMB substrate was added at 50 μL/well, and after 10 minutes of incubation at room temperature, a stop solution (1.0 M HCl) was added at 50 μL/well. OD₄₅₀ nm values were read using an ELISA plate reader (Insight, purchased from PerkinElmer), and the competition rate between the antibodies was calculated according to the OD₄₅₀ nm values using a formula.

[7] = biological target: T2, human MSLN-FL-his protein; test: competitive ELISA; row Tab142 (R1)
Description: as §1, §2

[8] = biological target: T4, human MSLN protein, endogenously …; test: FACS on OVCAR3 cells; antibody 0.00128 nM
[9] = biological target: T1, human MSLN-R2-his protein; test: ELISA; antibody 0 nM (blank)

T1 sequence (Q13421 other isoform, or with tags, fused parts or gaps): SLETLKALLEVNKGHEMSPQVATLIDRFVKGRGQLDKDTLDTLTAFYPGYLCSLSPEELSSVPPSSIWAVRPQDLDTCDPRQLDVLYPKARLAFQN
T2 sequence (Q13421 other isoform, or with tags, fused parts or gaps): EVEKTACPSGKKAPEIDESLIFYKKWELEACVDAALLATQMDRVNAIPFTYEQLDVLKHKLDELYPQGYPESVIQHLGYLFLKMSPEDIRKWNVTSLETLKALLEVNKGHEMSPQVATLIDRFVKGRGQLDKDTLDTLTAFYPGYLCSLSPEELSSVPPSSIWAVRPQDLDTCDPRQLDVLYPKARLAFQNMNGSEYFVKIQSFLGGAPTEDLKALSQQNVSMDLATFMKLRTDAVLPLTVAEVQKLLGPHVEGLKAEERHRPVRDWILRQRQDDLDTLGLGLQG
T4 sequence (Q13421 other isoform, or with tags, fused parts or gaps): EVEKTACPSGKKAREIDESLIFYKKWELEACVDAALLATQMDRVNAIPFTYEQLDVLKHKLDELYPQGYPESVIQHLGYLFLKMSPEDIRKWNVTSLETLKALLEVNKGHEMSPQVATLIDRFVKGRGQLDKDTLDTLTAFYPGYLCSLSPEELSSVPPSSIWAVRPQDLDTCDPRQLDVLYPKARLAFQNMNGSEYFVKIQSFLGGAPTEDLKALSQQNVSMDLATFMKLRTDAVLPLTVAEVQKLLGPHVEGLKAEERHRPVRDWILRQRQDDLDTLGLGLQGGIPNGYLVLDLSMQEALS
T3 sequence (Q13421 495-606): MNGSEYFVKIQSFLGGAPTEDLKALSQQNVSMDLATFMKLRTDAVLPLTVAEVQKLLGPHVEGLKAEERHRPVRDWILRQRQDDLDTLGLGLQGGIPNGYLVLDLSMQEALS

B1: Tab107 (YP3, hIgG1) (antibody, V domains shown)
VH: QEQLVESGGGLVQPGASLTLTCTASGIDFSRYYMCWVRQAPGKGLEGIACIYIGGSGSTYYASWAKGRFTISKASSTTVTLQMTSLTAADTATYFCARGTNLNYIFRLWGPGTLVTVSS
VL: DVVMTQTPSPVSAAVGGTVTIKCQASQSINNGLAWYQQKPGQPPRLLIYSASNLESGVPSRFKGSGSGTEFTLTISDLECDDAATYYCQCIWDGNSYVNAFGGGTEVVVRT
notes: Control antibody; VH and VL recombined into human IgG1 CH and CL expression vectors; also called YP3 human IgG1 antibody
OD450 nm [1]: 0.04 | competition rate [2]: -86% | OD450 nm [3]: 0.05 | FACS fluorescence intensity [4]: 80 | OD450 nm [5]: 0.09 | competition rate [6]: -41% | competition rate [7]: -6% | FACS fluorescence intensity [8]: 76 | OD450 nm [9]: 0.05
